Test results published in patent publication US20230226096A1 (Orna Therapeutics, Inc., priority 2020, published 2023).

B1: Simian Sapelovirus 1 (nucleic acid, listed as Sapelovirus sp.)
DNA: CCAAGGATCTGTTGCATAGGCGTTGTATCCCCTAACCTTTTACCTACCCATCCCAATAGGACTGGTATTTCGGTTTTGATTGAGTAATGGATACTGATTCTATACCTGTTACCCATTCAGGGGAAAAATGGAGTTTCTTTCATGGATCTGACTTGATATGACCAAGAGTCAACACTTTGCGTGTTGGCCGTATGGAATGCTTTAAGGTTTATTCTTTGGATTATGACTTCAGGGTTGGCCGCCCAGGATAAAAGGCAATTGTGGTAAGTGATGTTAGTCATTGGTGGTTGAAACCTGCCTAAGACGTCCTAGGTCTACGCTGTGCGGGCCGAAGTAAGCTTAGGAATAACAGGGAGTATGCCATTTTCTGCTTTCACCCAACACGACCGTACACGAAAGAGCTAGAGGCACTTTGGGGCAAAGGGAAAAGCTTTGCTTAGCCCGAATGTTCATTTGAGTCCTTGACGAATGCGTCCCGTCTGTCCCGACGGTGAGGCGTATGGCGCATGCTCATGGCATTACCCAATGGTGTATCTGTGAGGGGGGGGCTCCTCACACTTAGTCTAGTGCTACCTGACAGGGCCGCGGCTGGTCGTTTGTGTATGGTATAACCAGTAGTAATCCCCCATGGATTGCTTTAACTTCCCCTCCTCCCTTACCAAGACATTCTCTAAG
B2: Potamipivirus B (nucleic acid)
DNA: TTTCAACGTCGTGGCTGACGTTAAAAAGCCACAATTCCACTTACCTTTTACCTTTTATGTTTAATGTTTGTTAGTTTTGTGATCTTTAACAAATAGATCTAAATAATTTGTTGGTAACCAATCTCGGATGTTTCGGCTGCATTGTAGTTTATTTATTTCATTTTAGTTGTAGGTGGCCACTACGTCCTGGAATCATACATGGTAACATGTACCTCGGCGGTTATCCACTATTACGCTAATCTAAGAATATTTAAATGAAAATGTAAGTGTTACGGCTGACTTTGGGCCTGATAGTTAAATGCTCGCACTGACAGATAGTACCCTCCTTTAGGATCGATTCTGTTACATGGGATCCATTTTGGTGCCCCACTGATTCAACCTCTTTGTTGAAAAAGAGTTAGCATACTACAAATTTTCCAAACAAAAACCCTTTTTAATGACTACAACTTATGATTTTATGAATTTTACTGCTCTTGAAAAAGATATTTTGACATTGATCGCTGTACTGTTTCAGACATTCATTGCATCCATTTTTGTTGGCTACTCCTCACAAACTCAAAACTTTTCCACACGAGAAACCTTGTTTATTGAATTTTGCCTTTATATTTTGGAACTTGTTGTTGGATTTATTGTTTGCTTAATTATTGACCTCACACCTGTTTTAAACACTACAAT
modifications: Potamipivirus B
B3: Beihai Conger Picornavirus (nucleic acid)
DNA: GGGACAACCCCACAGCTGGTACAACCATTGTGGGTTGGTCTCCACCCTTTTTCAACCGTGGCAACTTCGGTTAAAGTTGCAAATCCCCCCTCTCCCTATTCCACCTCCCTTACTTTCACTCCCCATATATGGTCCCAGATTTTATTCTACCTCTTTATATTTTTATTTAGTACAGTGGTGGTGAATTACTCCCAGCATAAACTTTGCTGGATCAGTGTTCATCAAGCATACTAATTACTAATGTACTGAGCTATACTATTATCTGGCATCTCACCTGGATAACCGGTGTGACCATATTTCCTAGGTTGCCTCCCTATGTATTTTGTAGCACCTGTGCATCTGCACGTTGGGGCGACAAATTGTAGGTTTCCTGGCACGGGTAAGAATTGTGGAAAGCTAGTATGCAGTTAATGCAAGGGCGCGTTTTTCGCTACCCCGACACTGCTAAAGTTTTTGGGAGGGGTCCCTTAAACATTTCTAGTATTGAGTGATAGCTTTGCGGCAGGTCACCACAACCTTACTATAAATAAACCTGTTGAATCTCAC
B4: Parechovirus A17 (nucleic acid, listed as Parechovirus sp.)
DNA: CTCTATTAGTGAGATACCACGCTTGTGGACCTTATGCTCACACAGCCATCCTCTAGTAAGTTTGTAAGACGTCTGGTGACGTGTGGGAACTTGTGGGAATCAATATTTTGCTTTAAAGCATCCATTAGCCAGCGGATAAAACACCTGGTAACAGGTGCCTCTGGGGCCAAAAGCCAAGGTTTAACAGACCCTAGTGGATTGGTTTCAAAACCTGAAATATTGTGGAACACACTCAGTACCTACTGATCTGGTAGTAATGCAAGCACTAGTTGTAAGGCCCACGAAGGATGCCCAGAAGGTACCTGTAGGGAACAAGAGACACTATAGATCTGATCTGGGGCTGGCTACCTCTATTTTGGTGAGTCAGTTAAAAAACGTCTAGTGGGCCAAACCCAGGGGGGACCCTGGTTTCCATTTATTTTACAAAGGCACT
B5: Potamipivirus A (nucleic acid)
DNA: CACATGGAAAGCTTTTCGCTTCCATGTTTACGCACACACTCTCTTTGACACCCTGTTGTATGGTGTTAAACTACAACATTTGTCTGTCTATAATCGTTTATTTTGTTTACCCTATATGTACCCAAGTATTTGATTGCTTGACTCACATAAGCATCGGTAACCCATACTGTTTTATGAGCTACTACCTCTGCTGTCTACATACATTTTATATGAATGGTTTGAGCTCTGCCTCAGGATCAAACATGGTAACATGTTCCTTTGGTCAGTTAGAATCTTATTGTATAATCTAAGGTGTCTATTAGTACGTAGAAAGTTGTAACACATATGGGGCCTGATAGCCGCTATCTCTGATGGATGTAAGGTAACCTTCTTTAGGTCTGATACATTCTGCACAGGATCCAATTTTCGGTGCCCTGTACGAGTGCACTCTTATGCACGAGGACGAGATATGCTACAACCCACTGCAAATTTAAACCCAAACTTTAACA
modifications: Potamipivirus A
B6: Porcine Sapelovirus A2 (nucleic acid, listed as Sapelovirus sp.)
DNA: TTGAAATGGGTGTGGGGTACATGCGTATTACGGTACGCATATATTCCACACTCATTTCCCCCCCTCCACCCTTAAGGTGGTTGTATCCCCATACCTTACCCTCCCTTCTAAAACAGATGGACAAATGGATTTGAACTTATGGCAAGTGAATATGGTATGACTTTGGATACACTTTAACGGCAGTAGCGTGGCGAGCTATGGAAAAATCGCAATTGTCGATAGCCATGTTAGTGACGCGCTTCGGCGTGCTCCTTTGGTGATTCGGCGACTGGTTACAGGAGAGTAGGCAGTGAGCTATGGGCAAACCTCTACAGTATTACTTAGAGGGAATGTGCAATTGAGACTTGACGAGCGTCTCTTAGAGATGTGGCGCATGCTCTTGGCATTACCATAGTGAGCTTCCAGGTTGGGAAACCTGGACTGGGCCTATACTACCTGATAGGGTCGCGGCTGGCCGCCTGTAACTAGTATAGTCAGTTGAAACCCCCC
B7: Oscivirus (nucleic acid, listed as Oscivirus sp.)
DNA: CCTCGGTCCCTCTTTCCGTCGCCGCCCACGACGTTAAATGCGGTGTTGTGGTGCTTAGGTGCCACACCACTGCTATTTGGGTCCCCCTTTCCCCTATATATGTTTGTTTGTTTATTTCAATTTCTTGAGGATTGGCACCTCCTTATGCCAAATCTAAATCGTGGAGGATCCCAGGCTTTCTGGTCTTTAACAGAACTCCACGTCCAGGTCATAGAAACTGGTTGGTAGGCTGCCTGAGTAGTCCATTTGCTAGTAGTCCCTTGTGAACAGGGTGGCTCCCGTTTACTGCTGGTATTCCCGGTGTAGGTCGCCATGGTGGTAACACCATCCTGCATTGTGTGTGAACCAGTACCGCAAGGATAGCAAGGTATGAACACTTGTGGACGAAATGGTAAGTGATCAATTCACTTTCATGGCCGGAAGGTCACGTGGCAATCATGCCACCCAGGTACCCTCCTCTGGGAGGATCTGAGGGTGGGCTAAGCAGACCCTGCCATGTGGCTGAACTTTTCCCTTATTGTTTTACTTTGTAACATTTATAGTTGTGTTAGTGATTTGTGTGTTGTGCCCTTGTGAGCTATATCCAGTATAAGTTCGCAGCTAGAAGTTAATCCTTCGACATCGGCTGTATTGGAA

Each molecule was assayed on HEK293 cells. Details: luminescence from secreted Gluc in supernatant 24 hours after transfection of HEK293 cells; circular RNA encoding Gluc with the named IRES (UTR truncated to 675 nt).
Format: cell-based, human
Molecule B1 has an Expression of 6.55E+07. With B2 the Expression was 7.20E+05. With B3 the Expression was 1.15E+06. With B4 the Expression was 1.20E+06. Molecule B5 has an Expression of 8.43E+05. In the case of B6, the Expression is reported as 4.34E+06. B7 showed an Expression of 4.55E+07.
